Assay results from article PMC10127277, “Receptor Elimination by E3 Ubiquitin Ligase Recruitment (REULR): A Targeted Protein Degradation Toolbox” (ACS Synthetic Biology, 2023).

Molecular target: T1, human RNF130 (GOLIATH) extracellular domain (human, UniProt Q86XS8 28-194, biotin (BirA biotinylation))
T1 construct: RNF130 (GOLIATH), human, extracellular domain (ECD); also called RNF130 ECD; source: Expi293F, purified (Ni-NTA, size-exclusion chromatography), biotinylated with BirA; not shown: AVI, C-terminal, kept
T1 sequence (looked up): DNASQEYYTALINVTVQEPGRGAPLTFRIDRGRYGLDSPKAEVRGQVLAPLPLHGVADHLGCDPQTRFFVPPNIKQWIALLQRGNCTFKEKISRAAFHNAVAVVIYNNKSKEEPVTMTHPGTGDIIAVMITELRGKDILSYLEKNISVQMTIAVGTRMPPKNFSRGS
Experiment: SPR; Biacore T100; biotinylated ECD (ligand) captured on a streptavidin (SA) series S chip, ~100-200 RU; non-biotinylated VHH as analyte in HBS-P+ buffer, twofold dilutions from 500 nM (RNF128 E2, RNF130 D1) or 1000 nM (RNF43 C8); injection 60 s at 30 ul/min, dissociation 240 s; regeneration 1 x 10 sec glycine pH 2.5; 1:1 Langmuir model or equilibrium
Settings: both partners purified

B1: RNF130-D1 nanobody (VHH)
VHH: QVQLQESGGGLVQAGGSLRLSCAASGTISFIGYMGWYRQAPGKERELVASIASGTSTYYADSVKGRFTISRDNAKNTVYLQMNSLKPEDTAVYYCAATQYIQDVHRYWGQGTQVTVSS
notes: VHH selected from a synthetic yeast-display nanobody library against the human RNF130 ECD; Non-biotinylated analyte in SPR; source: Expi293F, purified (Ni-NTA, size-exclusion chromatography)
Kd: 6.4 nM
